Paper PMC9482650, “Quantitative fragmentomics allow affinity mapping of interactomes” (Nature Communications, 2022)

T1: APBA3_1, O96018
T1 sequence (O96018 389-490, limits assumed, looked up): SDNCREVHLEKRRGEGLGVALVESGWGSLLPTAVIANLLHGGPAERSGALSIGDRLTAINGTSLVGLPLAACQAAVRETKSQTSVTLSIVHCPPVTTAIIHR

T2: GRIP1_4, Q9Y3R0
T2 sequence (Q9Y3R0 467-571, limits assumed, looked up): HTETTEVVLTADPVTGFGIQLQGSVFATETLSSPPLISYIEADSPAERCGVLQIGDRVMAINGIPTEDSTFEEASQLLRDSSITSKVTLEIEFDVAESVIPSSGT

T3: LIN7A, O14910
T3 sequence (O14910 103-200, limits assumed, looked up): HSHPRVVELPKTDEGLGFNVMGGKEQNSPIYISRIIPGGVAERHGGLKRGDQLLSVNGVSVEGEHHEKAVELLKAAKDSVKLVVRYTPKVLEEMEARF

T4: LNX2_2, Q8N448
T4 sequence (Q8N448 334-432, limits assumed, looked up): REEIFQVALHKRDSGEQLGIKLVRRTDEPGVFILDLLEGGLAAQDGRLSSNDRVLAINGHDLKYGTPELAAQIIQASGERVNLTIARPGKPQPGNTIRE

T5: LNX2_3, Q8N448
T5 sequence (Q8N448 463-564, limits assumed, looked up): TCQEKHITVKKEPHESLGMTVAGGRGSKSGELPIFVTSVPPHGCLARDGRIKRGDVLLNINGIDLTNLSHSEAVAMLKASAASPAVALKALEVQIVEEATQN

T6: LRRC7, Q96NW7
T6 sequence (Q96NW7 1440-1537, limits assumed, looked up): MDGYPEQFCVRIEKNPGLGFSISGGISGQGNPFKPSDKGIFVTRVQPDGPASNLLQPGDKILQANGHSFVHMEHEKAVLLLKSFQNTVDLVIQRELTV

T7: MPDZ_12, O75970
T7 sequence (O75970 1857-1958, limits assumed, looked up): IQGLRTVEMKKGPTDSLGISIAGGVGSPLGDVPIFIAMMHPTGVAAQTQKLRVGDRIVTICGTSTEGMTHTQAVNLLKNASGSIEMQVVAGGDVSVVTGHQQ

T8: NHERF3_3, Q5T2W1
T8 sequence (Q5T2W1 238-333, limits assumed, looked up): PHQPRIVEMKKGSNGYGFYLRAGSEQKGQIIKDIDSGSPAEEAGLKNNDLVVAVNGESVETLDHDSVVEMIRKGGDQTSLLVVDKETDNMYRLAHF

T9: PCLO, Q9Y6V0
T9 sequence (Q9Y6V0 4491-4600, limits assumed, looked up): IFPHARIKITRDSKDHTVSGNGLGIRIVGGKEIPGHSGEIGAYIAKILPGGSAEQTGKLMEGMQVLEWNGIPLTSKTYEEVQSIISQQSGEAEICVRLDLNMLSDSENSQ

T10: PDZRN3_1, Q9UPQ7
T10 sequence (Q9UPQ7 244-349, limits assumed, looked up): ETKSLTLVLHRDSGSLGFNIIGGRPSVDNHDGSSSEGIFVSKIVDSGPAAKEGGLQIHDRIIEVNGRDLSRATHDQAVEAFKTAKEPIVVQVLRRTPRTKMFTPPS

T11: SNTA1, Q13424
T11 sequence (Q13424 82-180, limits assumed, looked up): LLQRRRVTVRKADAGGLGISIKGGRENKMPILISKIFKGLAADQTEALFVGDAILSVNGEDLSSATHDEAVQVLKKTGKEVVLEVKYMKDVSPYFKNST

T12: SNTB1, Q13884
T12 sequence (Q13884 107-205, limits assumed, looked up): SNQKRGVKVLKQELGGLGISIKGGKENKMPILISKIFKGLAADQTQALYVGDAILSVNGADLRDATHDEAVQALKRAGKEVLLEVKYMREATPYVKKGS

T13: SYNJ2BP, P57105
T13 sequence (P57105 8-110, limits assumed, looked up): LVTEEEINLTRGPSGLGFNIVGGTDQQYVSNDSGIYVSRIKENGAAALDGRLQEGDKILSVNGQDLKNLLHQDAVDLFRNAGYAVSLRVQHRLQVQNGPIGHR


What was measured:
Assay in all cases: holdup assay
Parameters in all cases: key: below the threshold = too weak to quantify, mostly under pKd 3.1 to 4
APBA3_1, O96018 = target: T1, APBA3_1, O96018; details: plain residues with an end cap or a label only (N-terminal biotin on a linker: ttds)
ARHGEF12, Q9NZN5-2 = target: ARHGEF12, Q9NZN5-2
ARHGEF12, Q9NZN5-2, sequence (Q9NZN5 other isoform, or with tags, fused parts or gaps): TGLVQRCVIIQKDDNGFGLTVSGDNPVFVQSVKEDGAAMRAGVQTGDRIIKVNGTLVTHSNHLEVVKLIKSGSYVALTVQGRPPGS

GORASP2, Q9H8Y8 = target: GORASP2, Q9H8Y8
GRASP, Q7Z6J2 = target: GRASP, Q7Z6J2
GRASP, Q7Z6J2, sequence (Q7Z6J2 96-193): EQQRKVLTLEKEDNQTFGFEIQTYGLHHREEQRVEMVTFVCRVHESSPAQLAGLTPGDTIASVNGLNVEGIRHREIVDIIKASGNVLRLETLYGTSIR

GRIP1_4, Q9Y3R0 = target: T2, GRIP1_4, Q9Y3R0
HTRA2, O43464 = target: HTRA2, O43464
HTRA2, O43464, sequence (O43464 355-458): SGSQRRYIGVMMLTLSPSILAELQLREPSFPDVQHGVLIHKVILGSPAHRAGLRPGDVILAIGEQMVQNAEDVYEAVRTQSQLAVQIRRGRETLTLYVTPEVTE

IL16_3, Q14005 = details: plain residues with an end cap or a label only (N-terminal biotin on a linker: ttds)
IL16_3, Q14005, sequence (Q14005 1107-1207): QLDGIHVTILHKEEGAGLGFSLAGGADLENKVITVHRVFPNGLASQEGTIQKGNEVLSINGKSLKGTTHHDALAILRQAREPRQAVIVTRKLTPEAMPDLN

IL16_4, Q14005 = target: IL16_4, Q14005
IL16_4, Q14005, sequence (Q14005 1229-1329): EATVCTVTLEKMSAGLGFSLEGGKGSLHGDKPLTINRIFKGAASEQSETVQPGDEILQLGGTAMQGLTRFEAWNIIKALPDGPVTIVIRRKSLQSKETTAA

Inadl_8, Q8NI35 = target: Inadl_8, Q8NI35
Inadl_8, Q8NI35, sequence (Q8NI35 1425-1530): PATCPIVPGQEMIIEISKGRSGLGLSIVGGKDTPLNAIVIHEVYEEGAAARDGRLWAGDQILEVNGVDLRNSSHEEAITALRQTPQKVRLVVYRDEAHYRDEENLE

LIMK2, P53671 = target: LIMK2, P53671
LIMK2, P53671, sequence (P53671 143-248): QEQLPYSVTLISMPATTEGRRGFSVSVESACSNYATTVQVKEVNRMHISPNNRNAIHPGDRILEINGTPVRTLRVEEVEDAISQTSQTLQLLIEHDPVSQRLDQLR

LIN7A, O14910 = target: T3, LIN7A, O14910
LNX2_2, Q8N448 = target: T4, LNX2_2, Q8N448
LNX2_3, Q8N448 = target: T5, LNX2_3, Q8N448; details: plain residues with an end cap or a label only (N-terminal biotin on a linker: ttds)
LRRC7, Q96NW7 = target: T6, LRRC7, Q96NW7
MAGI2_5, Q86UL8 = target: MAGI2_5, Q86UL8
MAGI2_5, Q86UL8, sequence (Q86UL8 915-1017): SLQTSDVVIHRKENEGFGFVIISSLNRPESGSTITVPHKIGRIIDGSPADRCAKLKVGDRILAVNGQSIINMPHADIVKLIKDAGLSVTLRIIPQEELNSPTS

MPDZ_12, O75970 = target: T7, MPDZ_12, O75970
NHERF3_3, Q5T2W1 = target: T8, NHERF3_3, Q5T2W1; details: plain residues with an end cap or a label only (N-terminal biotin on a linker: ttds)
PCLO, Q9Y6V0 = target: T9, PCLO, Q9Y6V0; details: plain residues with an end cap or a label only (N-terminal biotin on a linker: ttds)
PDZRN3_1, Q9UPQ7 = target: T10, PDZRN3_1, Q9UPQ7
PDZRN4_1, Q6ZMN7 = details: plain residues with an end cap or a label only (N-terminal biotin on a linker: ttds)
PDZRN4_1, Q6ZMN7, sequence (Q6ZMN7 213-318): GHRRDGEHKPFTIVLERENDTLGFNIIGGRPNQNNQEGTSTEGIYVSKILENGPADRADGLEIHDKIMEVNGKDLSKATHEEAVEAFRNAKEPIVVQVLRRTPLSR

SNTA1, Q13424 = target: T11, SNTA1, Q13424; details: plain residues with an end cap or a label only (N-terminal biotin on a linker: ttds)
SNTB1, Q13884 = target: T12, SNTB1, Q13884
SYNJ2BP, P57105 = target: T13, SYNJ2BP, P57105; details: plain residues with an end cap or a label only (N-terminal biotin on a linker: ttds)
TJP1_3, Q07157 = details: plain residues with an end cap or a label only (N-terminal biotin on a linker: ttds)
TJP1_3, Q07157, sequence (Q07157 416-512): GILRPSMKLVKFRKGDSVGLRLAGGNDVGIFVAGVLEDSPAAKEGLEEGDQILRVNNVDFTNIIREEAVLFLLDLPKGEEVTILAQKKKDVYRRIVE

[1] = plain residues with an end cap or a label only (N-terminal biotin on a linker: ttds)
[2] = plain residues with an end cap or a label only (N-terminal biotin on a linker: ado-ado)

Row | Binder | pKd (APBA3_1, O96018) | pKd (ARHGEF12, Q9NZN5-2; [1]) | pKd (GORASP2, Q9H8Y8; [1]) | pKd (GRASP, Q7Z6J2; [1]) | pKd (GRIP1_4, Q9Y3R0; [1]) | pKd (HTRA2, O43464; [1]) | pKd (IL16_3, Q14005) | pKd (IL16_4, Q14005; [1]) | pKd (Inadl_8, Q8NI35; [1]) | pKd (LIMK2, P53671; [1]) | pKd (LIN7A, O14910; [1]) | pKd (LNX2_2, Q8N448; [1]) | pKd (LNX2_3, Q8N448) | pKd (LRRC7, Q96NW7; [1]) | pKd (MAGI2_5, Q86UL8; [1]) | pKd (MPDZ_12, O75970; [1]) | pKd (NHERF3_3, Q5T2W1) | pKd (PCLO, Q9Y6V0) | pKd (PDZRN3_1, Q9UPQ7; [1]) | pKd (PDZRN4_1, Q6ZMN7) | further results
1 | RSLEEEESQL [GRASP, Q7Z6J2] | below the threshold | 3.56 | below the threshold | 3.99 | 3.5 | 3.69 | below the threshold | 3.54 | 3.71 | below the threshold | 3.56 | below the threshold | below the threshold | below the threshold | 4.42 | below the threshold | below the threshold | 3.73 | 4.24 | 4.17 | pKd (SNTA1, Q13424): below the threshold; pKd (SNTB1, Q13884; [1]): 3.89; pKd (SYNJ2BP, P57105): 3.86; pKd (TJP1_3, Q07157): below the threshold
2 | KSRVAFFEEL [NF2, P35240] |  |  |  |  |  |  |  |  |  |  |  |  |  |  |  |  |  |  |  |  | pKd (GORASP2, Q9H8Y8; [2]): 3.87; pKd (HTRA2, O43464; [2]): 3.61; pKd (IL16_4, Q14005; [2]): 3.68; pKd (LIN7A, O14910; [2]): 3.51; pKd (LRRC7, Q96NW7; [2]): 3.5; pKd (PDZRN3_1, Q9UPQ7; [2]): 3.54; pKd (SNTB1, Q13884; [2]): 3.54
3 | KRPEMTSSSV [MUC3B, MUC3A, Q02505;Q9H195] |  |  |  |  |  |  |  |  |  |  |  |  |  |  |  |  |  |  |  |  | pKd (ARHGEF12, Q9NZN5-2; [2]): 4; pKd (GRASP, Q7Z6J2; [2]): 4; pKd (GRIP1_4, Q9Y3R0; [2]): below the threshold; pKd (Inadl_8, Q8NI35; [2]): 4.63; pKd (LIMK2, P53671; [2]): below the threshold; pKd (LNX2_2, Q8N448; [2]): below the threshold; pKd (MAGI2_5, Q86UL8; [2]): 3.82; pKd (MPDZ_12, O75970; [2]): below the threshold; pKd (PDZRN3_1, Q9UPQ7; [2]): below the threshold
4 | ERKLSSESQV [LRP4, O75096] | below the threshold | 3.7 | 4.39 | below the threshold | below the threshold | below the threshold | below the threshold | below the threshold | below the threshold | below the threshold | below the threshold | below the threshold | below the threshold | below the threshold | 4.08 | below the threshold | below the threshold | below the threshold | below the threshold | below the threshold | pKd (SNTA1, Q13424): 3.78; pKd (SNTB1, Q13884; [1]): 4.05; pKd (SYNJ2BP, P57105): 4.78; pKd (TJP1_3, Q07157): below the threshold
